Test results from paper PMC7108872 (Nature structural & molecular biology, 2019).

Molecular target: bovine β-arrestin 1 (1–393) (bovine, UniProt P17870)
Assay: cryo-EM structure

Chain of bovine β-arrestin 1 (1–393) (P17870 1-393): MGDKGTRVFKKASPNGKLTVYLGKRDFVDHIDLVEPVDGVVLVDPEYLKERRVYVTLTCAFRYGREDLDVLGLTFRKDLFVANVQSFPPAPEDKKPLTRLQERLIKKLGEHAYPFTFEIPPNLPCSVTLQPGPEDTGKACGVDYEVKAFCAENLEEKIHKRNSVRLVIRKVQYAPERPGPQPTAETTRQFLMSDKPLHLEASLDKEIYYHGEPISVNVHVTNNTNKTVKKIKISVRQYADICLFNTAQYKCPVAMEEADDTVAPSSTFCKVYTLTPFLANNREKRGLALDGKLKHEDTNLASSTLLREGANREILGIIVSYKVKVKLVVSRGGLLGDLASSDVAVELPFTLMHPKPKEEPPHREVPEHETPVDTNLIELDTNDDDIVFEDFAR

B1: Nanobody 32 (VHH)
VHH: QVQLQESGGGLVQAGGSLRLSCVVSGFFFDTVTMAWYRRAPGKHRELVASATAGGTTTYADSVKDRFTISRDNAKNTVYLQMNSLKPEDTAVYYCNTFVRSLSWGQGTQVTVSS
B1: binds.
